Assay results from IntAct's records for PubMed 21252943.

B1: E3 ubiquitin-protein ligase RNF4 (Rattus norvegicus (Rat)), O88846 (parent)
chain: MSTRNPQRKRRGGAVNSRQTQKRTRETTSTPEISLEAEPIELVETVGDEIVDLTCESLEPVVVDLTHNDSVVIVEERRRPRRNGRRLRQDHADSCVVSSDDEELSKDKDVYVTTHTPRSTKDEGTTGLRPSGTVSCPICMDGYSEIVQNGRLIVSTECGHVFCSQCLRDSLKNANTCPTCRKKINHKRYHPIYI

Variants of: B1
Details: with sumo2_human SUMO2, P61956
Chain of sumo2_human SUMO2, P61956 (P61956 whole entry): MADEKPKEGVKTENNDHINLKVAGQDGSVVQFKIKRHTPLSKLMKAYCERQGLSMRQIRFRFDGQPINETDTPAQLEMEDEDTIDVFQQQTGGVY

Row | Variant | effect of a mutation on the interaction
1 | I50A | disrupting interaction
2 | L53A | disrupting interaction
3 | V71A | disrupting interaction
4 | L42A | disrupting interaction
5 | V74A | disrupting interaction
6 | V62A | disrupting interaction
7 | I40A | disrupting interaction
8 | V63A | disrupting interaction
9 | I73A | disrupting interaction
10 | V51A | disrupting interaction
11 | V61A | disrupting interaction
12 | V43A | disrupting interaction
13 | V72A | disrupting interaction
